# Values quoted from earlier work in patent publication US20090291133A1, “METHODS AND COMPOSTIONS FOR ENHANCING TRANSDERMAL DRUG DELIVERY” (NATIONAL HEALTH RESEARCH INSTITUTES, priority 2008, published 2009).
# Like-named read-outs stand apart in the source and are kept apart here.
# B1: papain (protein, UniProt P00784 134-345, looked up)
# Papain: IPEYVDWRQKGAVTPVKNQGSCGSCWAFSAVVTIEGIIKIRTGNLNEYSEQELLDCDRRSYGCNGGYPWSALQLVAQYGIHYRNTYPYEGVQRYCRSREKGPYAAKTDGVRQVQPYNEGALLYSIANQPVSVVLEAAGKDFQLYRGGIFVGPCGNKVDHAVAAVGYGPNYILIKNSWGTGWGENGYIRIKRGTGNSYGVCGLYTSSFYPVKN
# notes: proteolytic enzyme used as permeability enhancer
# Settings: reported in US005534260A
molecule,measurement,setting,value
B1,safe concentration of papain,equivalent in solution,4 µM
same,safe concentration of papain,,around 0.093 mg/ml
